In the supplement of paper PMC9170038:

Test system: MS2 coat protein
Assay: apparent KD of MS2 coat protein; higher = weaker reporter binding
Conditions: Eterna round: R107
Procedure, shortened: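 Binding of SNAP-549-labelled MS2 coat protein was measured on designed RNA switches transcribed on-chip from Illumina sequencing clusters. The protein rose in twofold steps from 0.7 or 1.5 nM to 3 µM, with 0.8–1.5 h per step early on and 10–20 min per step later, in 100 mM Tris-HCl pH 7.5, 80 mM KCl, 4 mM MgCl2, without or with constant ligand. Each design's apparent KD is the median of fits to its normalised cluster binding curves.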

[1] = input ligand: theophylline 20 uM
[2] = input ligand: tryptophan 2.4 mM
[3] = input ligand: theophylline 2 mM

| Sequence | apparent KD of MS2 coat protein (input ligand: arginine 13.2 mM) [nM] | apparent KD of MS2 coat protein [1] [nM] | apparent KD of MS2 coat protein [2] [nM] | apparent KD of MS2 coat protein (input ligand: none) [nM] | apparent KD of MS2 coat protein [3] [nM] |
| --- | --- | --- | --- | --- | --- |
| UCGACAGUGAACGAUACCAGCGUCACGUGGCCGGUGGUCACAUGAGGAUCACCCAUGUAACGCCCUUGGCAGCGUGCACGUAUCA [Latedirius] | 20.5 | 46.3 | 20.5 | – | – |
| UCGAUGGUAUCUGAUACCAGUAGCGUGCGUUACAUGAGGAUCACCCAUGUGCCUAUACUUUACCCUUGGCAGCAGUGGAUUCGAU [theeternabot_sameState_MS2_Theo_B_22] | 57.1 | 144 | 241 | – | – |
| UCGCCCAGGAAGGAUUCCUGGGAUAUGGAAGGAGCGCUGAUGCCAGCAGGUAGGUCGCCAACGGACAUGAGGAUCACCCAUGUAC [Same State - Arginine A (Freestyle 8)] | 14.5 | 22.7 | 21.2 | 19.9 | 26.6 |
| UCGCGAUAGAGAAGGAGCGUCAACACCACAGAACAUGAGGAUCACCCAUGUGUUACUUUUAGACAGGUAGGUCGCUCUAGCGCUU [JR_Nu_ExcArginiB_Sub028] | 14 | 18.3 | 13.3 | 12.2 | 16.4 |
| UCGCUAUUGUCGGCCGCCACUACUGCAGGGAAACAAAUAUAACCACAUGAGGAUCACCCAUGUCUUAGGACCGGGACACCCAUCU [theeternabot_sameState_MS2_Trp_B_2] | 54.8 | 126 | – | – | 119 |
| UCGCUCUGGGUGGGAUCCGGAGAUGUGGAAGGAGCGCUGGUAACAGCAGGUAGGUCGCCAACGGACAUGAGGAUCACCCAUGUAC [Same State - Arginine A (Freestyle 17)] | 25.2 | 40 | 26.7 | 37.3 | 44.2 |
| UCGGAUGCGGCGGCCGCCACUCGCGGAUAACGAUAGCUUAACAUGAGGAUCACCCAUGUGUCAUGGAGGACCGGGCCCAUACCGU [pbpmullin] | 18.8 | 36.4 | – | – | 26.3 |
| UCGUGUGUUUCGGAUACCAGUGAAAUCGAUACAUGAGGAUCACCCAUGUGAGAGGAUGUACACCCUUGGCAGCUGUCUGUAUCUG [asczmullin] | 14.7 | 16.8 | 12.1 | – | – |
| UCUUCGUUGGCGUCACAAUUCAUGCAAUGCCGAGGACCGGUACGGCCGCCACUCGGACUAAUACAUGAGGAUCACCCAUGUCGUG [theeternabot_exclusion_MS2_Trp_A_5] | 37.9 | 111 | – | – | 219 |
| UCUUUCUAUGUAGAUACCAGCAUGUUAUAUUUCUAAUGACAUGAGGAUCACCCAUGUAAAUGCCCUUGGCAGCUACAUUUUCUUU [SSTHB #4] | 21.6 | 22.3 | 23.7 | – | – |
| UGAACAUGAGGAUCACCCAUGUAGAGGGAAGGAGCGUCGAAGAAGACAGGUAGGUCGCCCAGAAAGAAAUCCUCAUGGAUAAGAA [Same State Arginine A GF2] | 86.2 | 152 | 69 | 54.4 | 122 |
| UGACAUUGCUCAGAUACCAGACAUGAGCAUCAGCCAUGUGCCAACAAGUACAAAAUAAAUGUCCCUUGGCAGCUGAGCAAUGUCU [TheoBX 23 #MS2Left #AlternativeMS2 #Theo22] | 14.1 | 16 | 12.3 | 10.9 | 153 |
| UGACAUUGCUCAGAUACCAGACAUGAGGAUCACCCAUGUACCAAGAAAACGUACAUAAAUGUCCCUUGGCAGCUGAGCAAUGUCU [TheoBX 10 #MS2Left #Theo2] | 175 | 535 | 531 | – | – |
| UGACAUUGCUCAGAUACCAGACAUGAGGAUCACCCAUGUACCAAGAGUACAAAUUAAAAUGUCCCUUGGCAGCUGAGCAAUGUCU [TheoBX 7 #MS2Left #Theo2] | 25.4 | 37.8 | 19.3 | – | – |
| UGACAUUGCUCAGAUACCAGACAUGAGGAUCACCCAUGUGCCAAAUAAACGUACAUAAAUGUCCCUUGGCAGCUGAGCAAUGUCU [TheoBX 11 #MS2Left #Theo2] | 46.8 | 87.5 | 59.1 | – | – |
| UGACAUUGCUGCGAUACCAGACAUGAGGAUCACCCAUGUACCAAGAAAACGUACAUAAAUGUCCCUUGGCAGCGCAGCAAUGUCU [MAT - Exclusion Theophlline B - Mod of Eli - D25] | 170 | 593 | 806 | – | – |
| UGAGAACAUGUCUUUAAGUUUACCUCUGAUACCAGAUUGAAAGGCAUCCCUUGGCAGCAGCAUACAUGAGGAUCACCCAUGUCCU [theeternabot_exclusion_MS2_Theo_A_12] | 64.4 | 119 | 88.9 | – | – |
| UGAGUUCGCUGAUGGGCUACGUCAGGUGAUACCAGCCACUCCCGCGGCCCUUGGCAGCACAUGAGGAUCACCCAUGUAGAGCUUG [Lazaceonus] | 17.9 | 20.4 | 14.1 | 15.7 | 254 |

| Sequence | apparent KD of MS2 coat protein (input ligand: arginine 13.2 mM) [nM] | apparent KD of MS2 coat protein [1] [nM] | apparent KD of MS2 coat protein [2] [nM] | apparent KD of MS2 coat protein (input ligand: none) [nM] | apparent KD of MS2 coat protein [3] [nM] |
| --- | --- | --- | --- | --- | --- |
| UGAUCCUGCAGGGAUACCAGCGCCGCUAGAUAACUAUGCACAUGAGGAUCACCCAUGUAACGCCCUUGGCAGCCCAGCUAAAGGG [Same State Theophylline B GF22] | 23.1 | 60.1 | 48.1 | 58.7 | 31.3 |
| UGAUGGUACGGAAGGAGCGUGUAAGAACAAGAACAUGAGGAUCACCCAUGUAUUAAUUUAACACAGGUAGGUCGCCGUGUUAUUG [11.H] | 31.9 | 35.8 | 16 | 29.2 | 54.7 |
| UGCCGAGACGUGGAUUACCCAUGUACCGAAGGAGCGCCCGAAAGGGCAGGUAGGUCGCGGAGGACAUGAGGAUCACCCAUGUCGA | 83.8 | 127 | 47 | 34.5 | 166 |
| UGGGUACCGACGGCCGCCACUGACUAUAGACAUGAGGAUCACCCAUGUAGAGAUCCUAGACUACCCAGGACCGGGUCUGGUGCUA [Exclusion Tryptophane B GF6] | 61 | 165 | – | – | 149 |
| UGGUGUAGGGUAAAUAGGAUUAGUACAGAAGGAGCGCGAAUAAACGCAGGUAGGUCGCUGGAAUAACAUGAGGAUCACCCAUGUC [Same State Arginine A GF 26] | 19.6 | 30.6 | 27.8 | 24.8 | 26.2 |
| UGUAACAUGAGGAUCACCCAUGUGAGUGAUACCAGAUAAGUAGUAGUCCCUUGGCAGCAUAUUGGGCGAGUGUAUAGUCUAUACG [Same State - Theophylline A (Freestyle 8)] | 111 | 183 | 150 | – | – |
| UGUAUGGACUGAAGGAGCGCCUCAAAAUAGCUUGAGGAUCACCCAAGUAAGGCGAAAGCCGGGCAGGUAGGUCGCAGUCCAUACU [ArgBX 3] | 12.3 | 16.6 | 14.8 | 14.3 | 15.2 |
| UGUAUGGACUGAAGGAGCGGAAGAUAACCUGAGGAUCACCCGGGUAAUAAGGCGAAAGCCUUCCAGGUAGGUCGCAGUCCAUACU | 230 | 334 | 250 | 293 | 419 |
| UGUAUGGACUGAAGGAGCGGGAAAUAAACCUGAGGAACACCCAGGUAAUAGGCGAAAGCCACCCAGGUAGGUCGCAGUCCAUACU | 17.2 | 14.8 | 18.8 | 13.6 | 14.4 |
| UGUAUGGACUGAAGGAGCGGGAAAUAAACCUGAGGAUCACCCAGGUAAUAGGCGAAAGCCACCCAGGUAGGUCGCAGUCCAUACU | 10.7 | 14.3 | 10.6 | 9.91 | 12 |
| UGUAUGUGAACUGAUACCAGACCUCAAUCUUGAGGAUCACCCAAGGAGGACGAAAGUCCGGUCCCUUGGCAGCAGUUCACAUACU [ThBS - Unstable 2] | 162 | 737 | 1390 | 664 | 40.5 |
| UGUAUGUGAUCUGAUACCAGCUAAUAAGCUUGAGGAUCACCCAAGUGGAGCGGAAACGCAAGCCCUUGGCAGCAGAUCGCAUACU [Denovo 4 #StaticStem #AlternativeMS2] | 60.9 | 50.6 | 98.9 | 89.3 | 12.7 |
| UGUAUGUGAUCUGAUACCAGUCCAACUGGUAAAACAUGAGGAUCACCCAUGUAAAAUUGGGACCCUUGGCAGCAGAUCGCAUACU [ThBS 2] | 259 | 418 | 615 | – | – |
| UGUAUGUGAUCUGAUACCAGUCCAACUGGUAAAACCUGAGGAUCACCCUGGUAAAAUUGGGACCCUUGGCAGCAGAUCGCAUACU | 222 | 674 | 560 | 350 | 125 |
| UGUAUUGGAAACAGUACUAGUGAUCCGGUCCGAGGACCGGUACGGCCGCCACUCGAUAUAAAUAAACAUGAGGAUCACCCAUGUA [Ex Tryptophan A 13] | 23.3 | 17.1 | – | – | 18 |
| UGUCAUGGAAACAUGACAGGUCUUACCGGUCGAGGACCGGUACGGCCGCCACUCGAUUGGUGGCACAUGAGGAUCACCCAUGUUA [SS Tryp A #16] | 21.8 | 47.3 | – | – | 34.3 |
| UGUCGGCGUAAGUUGGCAUGUCUUGCUGGUCGAGGACCGGUACGGCCGCCACUCGAUCCUUCGCACAUGAGGAUCACCCAUGUUG [SS Tryp A #25] | 20.3 | 29.3 | – | – | 20.4 |
